Numbering of substitutions follows the chain as printed. Names may count otherwise.
B1: periplasmic domain of WzzBSF (residues 54-295) (domain or fragment)
chain: EKWTSTAIITQPDVGQIAGYNNAMNVIYGQAAPKVSDLQETLIGRFSSAFSALAETLDNQEEPEKLTIEPSVKNQQLPLTVSYVGQTAEGAQMKLAQYIQQVDDKVNQELEKDLKDNIALGRKNLQDSLRTQEVVAQEQKDLRIRQIQEALQYANQAQVTKPQVQQTEDVTQDTLFLLGSEALESMIKHEATRPLVFSPNYYQTRQNLLDIEKLKFDDLDIHAYRYVMKPTLPIRRDSPKKA
notes: WzzBSF (polysaccharide co-polymerase, O-antigen chain length regulator) of Shigella flexneri, periplasmic domain, residues 54-295; Cloned in pMCSG7 by ligation-independent cloning; also called wild-type WzzBSF periplasmic domain; source: E. coli BL21(DE3), autoinduction, purified (HisTrap, TEV cleavage, reverse HisTrap, Superdex 200 SEC); not shown: His6, N-terminal, cleaved
B2: periplasmic domain of WzzBSF A107P (residues 54-295) (domain or fragment)
chain: B1 chain with A54P
notes: WzzBSF of Shigella flexneri, periplasmic domain, residues 54-295, with the mutation A107P found by random mutagenesis; Same construct limits as m1 ('the equivalent construct containing the A107P mutation'); also called A107P mutant; source: E. coli BL21(DE3), autoinduction, purified (HisTrap, TEV cleavage, reverse HisTrap, Superdex 200 SEC); not shown: His6, N-terminal, cleaved
B3: full-length WzzBSF (natural protein)
chain: MRVENNNVSGQNHDPEQIDLIDLLVQLWRGKMTIIISVIVAIALAIGYLAVAKEKWTSTAIITQPDVGQIAGYNNAMNVIYGQAAPKVSDLQETLIGRFSSAFSALAETLDNQEEPEKLTIEPSVKNQQLPLTVSYVGQTAEGAQMKLAQYIQQVDDKVNQELEKDLKDNIALGRKNLQDSLRTQEVVAQEQKDLRIRQIQEALQYANQAQVTKPQVQQTEDVTQDTLFLLGSEALESMIKHEATRPLVFSPNYYQTRQNLLDIEKLKFDDLDIHAYRYVMKPTLPIRRDSPKKAITLILAVLLGGMVGAGIVLGRNALRNYNAK
notes: WzzBSF of Shigella flexneri, wzzSF open reading frame in pRMCD30; ~36 kDa; also called wild-type WzzBSF; source: S. flexneri RMA4053 (wzz::kan), from plasmid pRMCD30 (pQE30-based), IPTG-induced, in whole cells

Experiments:
[1] = biological target: the molecule itself; test: crystal structure; hanging drop, 18°C, 0.1 M citric-acid/HEPES/CHES pH 7.3, 18% PEG 400, 18% PEG 8000, 0.1 M MgCl2; protein 12-13 mg/ml; open trimer in the crystal
[2] = biological target: the molecule itself; test: SDS-PAGE and immunoblot of non-cross-linked cells; whole S. flexneri cells incubated without formaldehyde (control), samples heated at 60°C for 5 min, 12% SDS-PAGE, immunoblot with anti-WzzBSF

| Protein | stoichiometry N [1] | stoichiometry N [2] |
| --- | --- | --- |
| B1 | 3 | – |
| B2 | 3 | – |
| B3 | – | 2 |

Reference: publication PMC4574919, “Structural and Biochemical Analysis of a Single Amino-Acid Mutant of WzzBSF That Alters Lipopolysaccharide O-Antigen Chain Length in Shigella flexneri” (PLoS ONE, 2015)
